Test results as given in article PMC12106912 (International Journal of Nanomedicine, 2025).

Molecular target: Glypican-3 (GPC3), surface antigen of HepG2 cells (Homo sapiens (endogenous, HepG2), UniProt P51654)
Assay: co-IP

Sequence of Glypican-3 (GPC3), surface antigen of HepG2 cells (P51654 25-580): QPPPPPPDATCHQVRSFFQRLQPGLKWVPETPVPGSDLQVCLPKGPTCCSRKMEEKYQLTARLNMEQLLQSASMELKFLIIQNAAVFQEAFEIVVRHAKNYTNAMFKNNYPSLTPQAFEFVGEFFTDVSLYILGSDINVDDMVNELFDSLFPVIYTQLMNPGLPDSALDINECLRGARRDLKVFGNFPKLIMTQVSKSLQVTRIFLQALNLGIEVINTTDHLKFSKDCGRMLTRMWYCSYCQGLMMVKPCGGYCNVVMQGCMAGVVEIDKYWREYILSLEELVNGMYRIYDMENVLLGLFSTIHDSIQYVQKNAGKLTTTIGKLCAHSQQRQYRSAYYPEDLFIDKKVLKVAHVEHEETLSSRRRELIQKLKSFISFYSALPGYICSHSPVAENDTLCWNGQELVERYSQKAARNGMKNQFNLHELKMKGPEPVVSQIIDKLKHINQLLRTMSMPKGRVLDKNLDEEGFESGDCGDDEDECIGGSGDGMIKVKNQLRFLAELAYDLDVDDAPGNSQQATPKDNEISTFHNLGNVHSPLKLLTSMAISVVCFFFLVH

B1: Hbp-hGC33-scFv/Myc fusion protein displayed on the membrane surface of E. coli outer membrane vesicles (hGC33-OMVs) (scFv, V domains shown)
VH: QVQLVQSGAEVKKPGASVKVSCKASGYTFTDYEMHWVRQAPGQGLEWMGALDPKTGDTAYSQKFKGRVTLTADKSTSTAYMELSSLTSEDTAVYYCTRFYSYTYWGQGTLVTVSS
VL: DVVMTQSPLSLPVTPGEPASISCRSSQSLVHSNGNTYLHWYLQKPGQSPQLLIYKVSNRFSGVPDRFSGSGSGTDFTLKISRVEAEDVGVYYCSQNTHVPPTFGQGTKLEIK
  binding result: binds
